Our source for the collision cross section values is the supplement of paper PMC10598134.

The data set can be described thus: collision cross section of modified peptide (TIMS, N2, iRT-aligned); higher = larger / more extended gas-phase ion. In short, it runs like this:
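Values are averages of 1–3 technical replicates of the most abundant feature for each charge state. Collision cross section was obtained from the Mason-Schamp equation after 1/K0 calibration with three reference ions and run-wise alignment to the median iRT peptide deviation. Synthetic peptide pools (iRT standard spiked 1:40) were separated on a 120-min nanoflow C18 gradient at 60 °C, analysed on a timsTOF Pro/HT (dda-PASEF, nitrogen, ~2.4 mbar) and identified with MaxQuant.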

[1] abbreviates: charge state: 2, modification: Butyryl.
Where [2] appears, read: charge state: 2, modification: Crotonyl.
Where [3] appears, read: charge state: 2, modification: Dimethyl (K).
[4] abbreviates: charge state: 3, modification: Dimethyl (K).
Where [5] appears, read: charge state: 2, modification: Formyl.
The mark [6] stands for this setting: charge state: 2, modification: Glutarylation.
[7] abbreviates: charge state: 2, modification: GlyGly (K).
The mark [8] stands for this setting: charge state: 3, modification: GlyGly (K).
[9] abbreviates: charge state: 2, modification: Malonyl.
Where [10] appears, read: charge state: 2, modification: Methyl (K).
[11] abbreviates: charge state: 3, modification: Methyl (K).
Where [12] appears, read: charge state: 2, modification: Propionyl.
Setting [13] is: charge state: 2, modification: Succinyl.
Where [14] appears, read: charge state: 3, modification: Succinyl.
[15] abbreviates: charge state: 2, modification: Trimethyl (K).
[16] abbreviates: charge state: 3, modification: Trimethyl (K).
Where [17] appears, read: charge state: 2, modification: hydroxyisobutyryl.
Where [18] appears, read: charge state: 3, modification: hydroxyisobutyryl.
The mark [19] stands for this setting: charge state: 2, modification: Acetyl (K).
[20] abbreviates: charge state: 3, modification: Acetyl (K).
[21] abbreviates: charge state: 3, modification: Glutarylation.
The mark [22] stands for this setting: charge state: 2, modification: Biotin.

± gives the standard deviation.

VETTVTSLKTK [_VETTVTSLK(Butyryl)TK_] registered a collision cross section under setting [1] of 389.24 ± 1.3 Å².

As for VETTVTSLKTK [_VETTVTSLK(Crotonyl)TK_], the collision cross section under setting [2] came to 389.71 ± 0.89 Å². Consider “VETTVTSLKTK [_VETTVTSLK(Dimethyl (K))TK_]”, for which the collision cross section worked out at 385.99 ± 0.37 Å² under setting [3] and 450.04 ± 3.7 Å² under setting [4]. For the sequence VETTVTSLKTK [_VETTVTSLK(Formyl)TK_], under setting [5], the collision cross section turned out to be 373.38 ± 0.89 Å². The sequence “VETTVTSLKTK [_VETTVTSLK(Gluratylation)TK_]” gave a collision cross section under setting [6] of 392.12 ± 0.61 Å². In the case of VETTVTSLKTK [_VETTVTSLK(GlyGly (K))TK_], the collision cross section by setting is: under setting [7], 391.21 ± 2 Å²; under setting [8], 459.77 ± 2 Å². Take VETTVTSLKTK [_VETTVTSLK(Malonyl)TK_]: under setting [9], the collision cross section worked out at 384.89 ± 0.011 Å². VETTVTSLKTK [_VETTVTSLK(Methyl (K))TK_]: the collision cross section by setting is: under setting [10], 381.5 ± 1.8 Å²; under setting [11], 455.24 ± 7.2 Å².

In turn, VETTVTSLKTK [_VETTVTSLK(Propionyl)TK_] returned a collision cross section under setting [12] of 382.91 ± 0.92 Å². Take VETTVTSLKTK [_VETTVTSLK(Succinyl)TK_]: the collision cross section under setting [13] came to 381.14 ± 3.4 Å² and the collision cross section under setting [14] came out at 451.06 Å².

Turning to “VETTVTSLKTK [_VETTVTSLK(Trimethyl (K))TK_]”, the collision cross section is given as 391.95 ± 0.62 Å² under setting [15] and 455.28 ± 8.1 Å² under setting [16]. On to “VETTVTSLKTK [_VETTVTSLK(hydroxyisobutyryl)TK_]”, for which the collision cross section runs as follows: under setting [17], 389.83 ± 0.81 Å²; under setting [18], 450.94 ± 1.9 Å².

With “VFIGNLNTLVVKK [_VFIGNLNTLVVK(Acetyl (K))K_]”, the collision cross section amounted to 409.46 ± 1.7 Å² under setting [19] and 485 Å² under setting [20]. “VFIGNLNTLVVKK [_VFIGNLNTLVVK(Butyryl)K_]”: the collision cross section is given as 414.54 ± 0.53 Å² under setting [1] and 490.12 Å² (charge state: 3, modification: Butyryl).

In the case of “VFIGNLNTLVVKK [_VFIGNLNTLVVK(Crotonyl)K_]”, the collision cross section under setting [2] came out at 413.58 ± 0.34 Å² and the collision cross section (charge state: 3, modification: Crotonyl) stood at 479.51 Å². As for “VFIGNLNTLVVKK [_VFIGNLNTLVVK(Dimethyl (K))K_]”, the collision cross section reads like this: under setting [3], 427.12 ± 1.4 Å²; under setting [4], 478.47 ± 1.2 Å². Under setting [5], VFIGNLNTLVVKK [_VFIGNLNTLVVK(Formyl)K_] came in with a collision cross section of 407.78 ± 0.74 Å². As to “VFIGNLNTLVVKK [_VFIGNLNTLVVK(Gluratylation)K_]”, the collision cross section by setting is: under setting [6], 424.62 ± 0.97 Å²; under setting [21], 495.12 ± 1.7 Å². Take “VFIGNLNTLVVKK [_VFIGNLNTLVVK(GlyGly (K))K_]”: the collision cross section reads like this: under setting [7], 445.95 ± 1.4 Å²; under setting [8], 487.11 ± 2 Å².

Regarding “VFIGNLNTLVVKK [_VFIGNLNTLVVK(Malonyl)K_]”, the collision cross section under setting [9] came out at 419.59 ± 0.57 Å². As for “VFIGNLNTLVVKK [_VFIGNLNTLVVK(Methyl (K))K_]”, the collision cross section is, setting by setting: under setting [10], 423.04 ± 1.2 Å²; under setting [11], 477.31 ± 4.3 Å². As for “VFIGNLNTLVVKK [_VFIGNLNTLVVK(Succinyl)K_]”, the collision cross section by setting is: under setting [13], 423.07 ± 0.53 Å²; under setting [14], 489.97 ± 1.6 Å². Take “VFIGNLNTLVVKK [_VFIGNLNTLVVK(Trimethyl (K))K_]”: the collision cross section stood at 435.19 ± 1 Å² under setting [15] and 485.88 ± 1.8 Å² under setting [16].

Take “VFIGNLNTLVVKK [_VFIGNLNTLVVK(hydroxyisobutyryl)K_]”: the collision cross section by setting is: under setting [17], 416.95 ± 0.83 Å²; under setting [18], 490.45 ± 2.8 Å².

The sequence “VFIGNLNTLVVKKK [_VFIGNLNTLVVK(Acetyl (K))KK_]” returned a collision cross section under setting [20] of 507.56 ± 1 Å².

For “VFIGNLNTLVVKKK [_VFIGNLNTLVVK(Formyl)KK_]”, for the setting “charge state: 3, modification: Formyl”, the collision cross section is on record as 499.94 Å². Under setting [21], “VFIGNLNTLVVKKK [_VFIGNLNTLVVK(Gluratylation)KK_]” yielded a collision cross section of 521.05 ± 1.8 Å². “VFIGNLNTLVVKKK [_VFIGNLNTLVVK(GlyGly (K))KK_]” yielded a collision cross section under setting [8] of 502.69 ± 1.1 Å². Turning to “VFIGNLNTLVVKKK [_VFIGNLNTLVVK(Malonyl)KK_]”, the collision cross section (charge state: 3, modification: Malonyl) is 517.22 Å². Under setting [11], “VFIGNLNTLVVKKK [_VFIGNLNTLVVK(Methyl (K))KK_]” had a collision cross section of 483.02 ± 5.9 Å². “VFIGNLNTLVVKKK [_VFIGNLNTLVVK(Succinyl)KK_]” registered a collision cross section under setting [14] of 514.83 ± 3.9 Å². Take “VFIGNLNTLVVKKK [_VFIGNLNTLVVK(Trimethyl (K))KK_]”: the collision cross section under setting [16] is 488.61 ± 1.1 Å². On to “VFIGNLNTLVVKKK [_VFIGNLNTLVVK(hydroxyisobutyryl)KK_]”, for which, under setting [18], the collision cross section is 515.31 ± 2.1 Å². “VFLDCCNYITELR [_VFLDCCNY(Nitro (Y))ITELR_]” had a collision cross section (charge state: 2, modification: Nitro (Y)) of 448.56 ± 0.53 Å². Under setting [19], “VFSIISSEKELK [_VFSIISSEK(Acetyl (K))ELK_]” came in with a collision cross section of 405.7 ± 0.9 Å². VFSIISSEKELK [_VFSIISSEK(Biotin)ELK_] showed a collision cross section under setting [22] of 432.12 ± 1.1 Å².

In turn, VFSIISSEKELK [_VFSIISSEK(Butyryl)ELK_] displayed a collision cross section under setting [1] of 413.27 ± 0.78 Å². Sequence VFSIISSEKELK [_VFSIISSEK(Crotonyl)ELK_] displayed a collision cross section under setting [2] of 412.67 ± 0.34 Å². For “VFSIISSEKELK [_VFSIISSEK(Dimethyl (K))ELK_]”, the collision cross section is, setting by setting: under setting [3], 416.15 ± 1.1 Å²; under setting [4], 490.22 ± 1.2 Å². The sequence VFSIISSEKELK [_VFSIISSEK(Formyl)ELK_] gave a collision cross section under setting [5] of 402.55 ± 0.42 Å². “VFSIISSEKELK [_VFSIISSEK(Gluratylation)ELK_]” gave a collision cross section under setting [6] of 415.44 ± 1.1 Å². “VFSIISSEKELK [_VFSIISSEK(GlyGly (K))ELK_]”: the collision cross section is, setting by setting: under setting [7], 424.98 ± 0.97 Å²; under setting [8], 493.89 ± 2 Å².

On to VFSIISSEKELK [_VFSIISSEK(Malonyl)ELK_], for which, under setting [9], the collision cross section is recorded as 409.68 ± 0.66 Å². For the sequence “VFSIISSEKELK [_VFSIISSEK(Methyl (K))ELK_]”, the collision cross section is, setting by setting: under setting [10], 411.54 ± 0.9 Å²; under setting [11], 489.57 ± 1.9 Å². VFSIISSEKELK [_VFSIISSEK(Succinyl)ELK_] displayed a collision cross section under setting [13] of 409.2 ± 4.2 Å². Regarding “VFSIISSEKELK [_VFSIISSEK(Trimethyl (K))ELK_]”, the collision cross section by setting is: under setting [15], 421.37 ± 1.1 Å²; under setting [16], 454.68 ± 1.8 Å². The sequence “VFSIISSEKELK [_VFSIISSEK(hydroxyisobutyryl)ELK_]” yielded a collision cross section under setting [17] of 414.96 ± 0.83 Å². Sequence “VGADGTVFATR [_VGADGTVFAT(HexNAc (ST))R_]” showed a collision cross section (charge state: 2, modification: HexNAc (ST)) of 366.62 ± 0.59 Å².

Under setting [19], VGEFSGANKEK [_VGEFSGANK(Acetyl (K))EK_] had a collision cross section of 363.56 ± 0.5 Å².

VGEFSGANKEK [_VGEFSGANK(Biotin)EK_] displayed a collision cross section under setting [22] of 386.08 Å².

VGEFSGANKEK [_VGEFSGANK(Butyryl)EK_]: the collision cross section under setting [1] amounted to 369.78 ± 1.3 Å².

On to VGEFSGANKEK [_VGEFSGANK(Crotonyl)EK_], for which the collision cross section under setting [2] is recorded as 370.98 ± 0.8 Å².

On to “VGEFSGANKEK [_VGEFSGANK(Dimethyl (K))EK_]”, for which the collision cross section is recorded as 376.33 ± 1.2 Å² under setting [3] and 440.62 ± 2.8 Å² under setting [4]. In the case of VGEFSGANKEK [_VGEFSGANK(Formyl)EK_], under setting [5], the collision cross section was 358.59 ± 1.4 Å². Under setting [6], “VGEFSGANKEK [_VGEFSGANK(Gluratylation)EK_]” registered a collision cross section of 364.67 ± 0.089 Å². VGEFSGANKEK [_VGEFSGANK(GlyGly (K))EK_] returned a collision cross section under setting [7] of 372.84 ± 0.89 Å² and a collision cross section under setting [8] of 452.89 ± 1.5 Å².

Consider VGEFSGANKEK [_VGEFSGANK(Malonyl)EK_], for which the collision cross section under setting [9] was 354.12 ± 1.7 Å².

With VGEFSGANKEK [_VGEFSGANK(Methyl (K))EK_], the collision cross section under setting [10] is 374.84 ± 0.74 Å² and the collision cross section under setting [11] is 443.95 ± 6.6 Å².

VGEFSGANKEK [_VGEFSGANK(Propionyl)EK_] showed a collision cross section under setting [12] of 367.87 ± 0.33 Å².

In the case of VGEFSGANKEK [_VGEFSGANK(Succinyl)EK_], under setting [13], the collision cross section is listed as 357.27 ± 0.73 Å². For “VGEFSGANKEK [_VGEFSGANK(Trimethyl (K))EK_]”, the collision cross section by setting is: under setting [15], 384.48 ± 1.7 Å²; under setting [16], 437.18 ± 7.5 Å².

For the sequence “VGEFSGANKEK [_VGEFSGANK(hydroxyisobutyryl)EK_]”, the collision cross section worked out at 364.17 ± 0.9 Å² under setting [17] and 444.77 Å² under setting [18].

Turning to “VGIDTPDIDIHGPEGKLK [_VGIDTPDIDIHGPEGK(Acetyl (K))LK_]”, the collision cross section was 490.05 Å² under setting [19] and 536.56 ± 1.2 Å² under setting [20].
